Measurements taken from patent US20240360228A1 (BIOLEGEND, published 2024).

Key:
[1] = target: T1, human chemokine (C-C motif) receptor 8 (CCR8) (human, UniProt P51685 1-355); assay: flow cytometry blocking, human PBMC, CD3+ gate; competitor PE-433H
T1 construct: also called hCCR8
T1 sequence (P51685 whole entry): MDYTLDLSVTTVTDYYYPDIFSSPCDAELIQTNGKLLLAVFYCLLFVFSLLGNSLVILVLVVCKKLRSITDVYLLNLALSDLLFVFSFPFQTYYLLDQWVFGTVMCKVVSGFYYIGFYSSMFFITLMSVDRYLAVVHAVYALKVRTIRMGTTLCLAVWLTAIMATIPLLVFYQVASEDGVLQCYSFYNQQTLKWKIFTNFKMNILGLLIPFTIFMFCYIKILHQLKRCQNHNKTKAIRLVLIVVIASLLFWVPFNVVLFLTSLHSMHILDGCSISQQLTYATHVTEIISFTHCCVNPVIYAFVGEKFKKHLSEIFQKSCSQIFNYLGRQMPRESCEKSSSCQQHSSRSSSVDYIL

[2] = target: T1, human chemokine (C-C motif) receptor 8 …; assay: flow cytometry blocking, human PBMC, CD3+ gate; % cells stained by competitor PE-AB10 after block
Protocol: (§1) For blocking studies, 100 μL of the cell suspension were incubated with 10 μg purified isotype control, AB1, AB2, AB3, AB4, AB5, AB8, AB9, AB10, AB11, AB12, AB13, AB14, AB15, and Commercial ABI antibodies, or isotype control, as blocking agents.
(§2) After incubation with the blocking agent, the cells were incubated with 0.25 μg of the indicated PE-conjugated antibody plus anti-human CD4 APC or anti-human CD3 for another 15 minutes in the dark and then washed 2 times with Cell Staining Buffer, and acquired in a FACSCanto II flow cytometer (BD Biosciences); the data was analyzed using FCS Express (De Novo Software); MFI correspond to the CCR8+ CD4+ lymphocytes or CCR8+ CD3+ lymphocytes.

[3] = target: T1, human chemokine (C-C motif) receptor 8 …; assay: flow cytometry blocking, human PBMC, CD3+ gate; % cells stained by competitor PE-AB11 after block
Protocol: as §1, §2

[4] = target: T1, human chemokine (C-C motif) receptor 8 …; assay: flow cytometry blocking, human PBMC, CD3+ gate; competitor PE-AB7
Protocol: as §1, §2
(§3) Percentage original MFI was calculated by dividing the MFI of samples blocked with AB1, AB2, AB3, AB4, AB5, AB6, AB7, AB8, AB9, AB10, AB11, AB12, AB13, AB14, AB15, and Commercial ABI antibodies, by the MFI of samples blocked with the corresponding isotype control. This value was subtracted from 100 to get a blocking percentage. The formula is shown below: […]

[5] = target: T1, human chemokine (C-C motif) receptor 8 …; assay: flow cytometry blocking, human PBMC, CD3+ gate; % cells stained by competitor PE-AB7 after block
Protocol: as §1, §2

[6] = target: T1, human chemokine (C-C motif) receptor 8 …; assay: flow cytometry blocking, human PBMC, CD3+ gate; competitor PE-AB5
Protocol: as §1, §2, §3

[7] = target: T1, human chemokine (C-C motif) receptor 8 …; assay: flow cytometry blocking, human PBMC, CD3+ gate; % cells stained by competitor PE-433H after block
Protocol: as §1, §2

[8] = target: T1, human chemokine (C-C motif) receptor 8 …; assay: flow cytometry blocking, human PBMC, CD3+ gate; % cells stained by competitor PE-AB5 after block
Protocol: as §1, §2

[9] = target: T1, human chemokine (C-C motif) receptor 8 …; assay: flow cytometry blocking, human PBMC, CD3+ gate; competitor PE-AB15
Protocol: as §1, §2, §3

[10] = target: T1, human chemokine (C-C motif) receptor 8 …; assay: flow cytometry blocking, human PBMC, CD3+ gate; competitor PE-AB6
Protocol: as §1, §2, §3

[11] = target: T1, human chemokine (C-C motif) receptor 8 …; assay: flow cytometry blocking, human PBMC, CD3+ gate; % cells stained by competitor PE-AB12 after block
Protocol: as §1, §2

[12] = target: T1, human chemokine (C-C motif) receptor 8 …; assay: flow cytometry blocking, human PBMC, CD3+ gate; competitor PE-AB14
Protocol: as §1, §2, §3

[13] = target: T1, human chemokine (C-C motif) receptor 8 …; assay: flow cytometry blocking, human PBMC, CD3+ gate; % cells stained by competitor PE-AB13 after block
Protocol: as §1, §2

[14] = target: T1, human chemokine (C-C motif) receptor 8 …; assay: flow cytometry blocking, human PBMC, CD3+ gate; % cells stained by competitor PE-AB6 after block
Protocol: as §1, §2

[15] = target: T1, human chemokine (C-C motif) receptor 8 …; assay: flow cytometry blocking, human PBMC, CD3+ gate; competitor PE-AB13
Protocol: as §1, §2, §3

[16] = target: T1, human chemokine (C-C motif) receptor 8 …; assay: flow cytometry blocking, human PBMC, CD3+ gate; % cells stained by competitor PE-AB14 after block
Protocol: as §1, §2

[17] = target: T1, human chemokine (C-C motif) receptor 8 …; assay: flow cytometry blocking, human PBMC, CD3+ gate; % cells stained by competitor PE-AB15 after block
Protocol: as §1, §2

[18] = target: T1, human chemokine (C-C motif) receptor 8 …; assay: flow cytometry blocking, human PBMC, CD3+ gate; competitor PE-AB11
Protocol: as §1, §2, §3

[19] = target: T1, human chemokine (C-C motif) receptor 8 …; assay: flow cytometry blocking, human PBMC, CD3+ gate; competitor PE-AB12
Protocol: as §1, §2, §3

[20] = target: T1, human chemokine (C-C motif) receptor 8 …; assay: flow cytometry blocking, human PBMC, CD3+ gate; competitor PE-L263G8
[21] = target: T1, human chemokine (C-C motif) receptor 8 …; assay: flow cytometry blocking, human PBMC, CD3+ gate; competitor PE-AB8
Protocol: as §1, §2, §3

[22] = target: T1, human chemokine (C-C motif) receptor 8 …; assay: flow cytometry blocking, human PBMC, CD3+ gate; % cells stained by competitor PE-AB8 after block
Protocol: as §1, §2

[23] = target: T1, human chemokine (C-C motif) receptor 8 …; assay: flow cytometry blocking, human PBMC, CD3+ gate; competitor PE-AB10
Protocol: as §1, §2, §3

[24] = target: T1, human chemokine (C-C motif) receptor 8 …; assay: flow cytometry blocking, human PBMC, CD3+ gate; % cells stained by competitor PE-L263G8 after block
Protocol: as §1, §2

[25] = target: T2, human chemokine (C-C motif) receptor 8 (CCR8) (human, UniProt P51685 1-355); assay: flow cytometry blocking, PBMC CCR8+ CD4+ cells; competitor PE-AB4 (its MFI is read)
T2 construct: On human peripheral blood lymphocytes / PBMC (native) or on human CCR8 GFP-transfected Ba/F3 cells; also called hCCR8; human CCR8
Method in brief: (§4)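 Isotype-normalized blocking: cells pretreated with 10 μg test antibody, then 0.25 μg PE-competitor and anti-CD4 or anti-CD3, 15 min dark, 2 washes. Flow MFI on CCR8+ T-cell gate.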
T2 sequence (P51685 whole entry): as above

[26] = target: T2, human chemokine (C-C motif) receptor 8 …; assay: cell-based or functional assay
[27] = target: T2, human chemokine (C-C motif) receptor 8 …; assay: flow cytometry blocking, PBMC CCR8+ CD4+ cells; competitor PE-AB15 (its MFI is read)
Method in brief: as §4

[28] = target: T2, human chemokine (C-C motif) receptor 8 …; assay: flow cytometry blocking, PBMC CCR8+ CD4+ cells; competitor PE-AB6 (its MFI is read)
Method in brief: as §4

[29] = target: T2, human chemokine (C-C motif) receptor 8 …; assay: flow cytometry blocking, PBMC CCR8+ CD4+ cells; competitor PE-AB10 (its MFI is read)
Method in brief: as §4

[30] = target: T2, human chemokine (C-C motif) receptor 8 …; assay: flow cytometry blocking, PBMC CCR8+ CD4+ cells; competitor PE-AB11 (its MFI is read)
Method in brief: as §4

[31] = target: T2, human chemokine (C-C motif) receptor 8 …; assay: flow cytometry blocking, PBMC CCR8+ CD4+ cells; competitor PE-AB2 (its MFI is read)
Method in brief: as §4

[32] = target: T2, human chemokine (C-C motif) receptor 8 …; assay: flow cytometry blocking, PBMC CCR8+ CD4+ cells; competitor PE-AB5 (its MFI is read)
Method in brief: as §4

[33] = target: T2, human chemokine (C-C motif) receptor 8 …; assay: flow cytometry blocking, PBMC CCR8+ CD4+ cells; competitor PE-AB1 (its MFI is read)
Method in brief: as §4

[34] = target: T2, human chemokine (C-C motif) receptor 8 …; assay: flow cytometry blocking, PBMC CCR8+ CD4+ cells; competitor PE-AB12 (its MFI is read)
Method in brief: as §4

[35] = target: T2, human chemokine (C-C motif) receptor 8 …; assay: flow cytometry blocking, PBMC CCR8+ CD4+ cells; competitor PE-AB14 (its MFI is read)
Method in brief: as §4

[36] = target: T2, human chemokine (C-C motif) receptor 8 …; assay: flow cytometry blocking, PBMC CCR8+ CD4+ cells; competitor PE-AB3 (its MFI is read)
Method in brief: as §4

[37] = target: T2, human chemokine (C-C motif) receptor 8 …; assay: flow cytometry blocking, PBMC CCR8+ CD4+ cells; competitor PE-ABII (its MFI is read)
Method in brief: as §4

[38] = target: T2, human chemokine (C-C motif) receptor 8 …; assay: flow cytometry blocking, PBMC CCR8+ CD4+ cells; competitor PE-AB13 (its MFI is read)
Method in brief: as §4

B1: anti-CCR8 monoclonal antibody AB5 (antibody, V domains shown)
VH: QVQLKESGPGLVQPSQTLSLTCTVSGFSLTSYHVSWVRQPPGKGLEWMGVIWTGGSTTYNSLLKSRLSISRDISKSQVFLKMNSLQTEDTATYYCARGGTVVKGGFAYWGQGTLVTVSS
VL: DIQMTQSPASLSASLEEIVTITCQASQDIGNRLSWYQQKPGKSPQLLIYGATSLADGVPSRFSGSRSGTQYSLKISRLQVEDIGIYYCLQAYSTPLTFGSGTKLEIK
notes: Hybridoma monoclonal; also called antibody 5; clone 5
With B1 the “% Blocking” value [1] was -0.99%, the “% Positive cells” value [2] was 7.42% and the “% Positive cells” value [3] was 7.14%. For the same binder, the “% Blocking” value [4] was -7.14%, the “% Positive cells” value [5] was 9.75% and the “% Blocking” value [6] was 84.9%. For the same binder, the “% Positive cells” value [7] was 7.14%, the “% Positive cells” value [8] was 1.25% and the “% Blocking” value [9] was -2.58%. The “% Blocking” value [10] was 96.1%, the “% Positive cells” value [11] was 7.54% and the “% Blocking” value [12] was 9.26%. The “% Positive cells” value [13] was 7.01%, the “% Positive cells” value [14] was 0.32% and the “% Blocking” value [15] was -5.41%. The “% Positive cells” value [16] was 6.47%, the “% Positive cells” value [17] was 6.75% and the “% Blocking” value [18] was -1.71%. For the same binder, the “% Blocking” value [19] was -0.13%, the “% Blocking” value [20] was -22.1% and the “% Blocking” value [21] was 0.12%. The “% Positive cells” value [22] was 8.45%, the “% Blocking” value [23] was -23.1% and the “% Positive cells” value [24] was 7.17%.

B2: AB15 (antibody, V domains shown)
VH: EVQLVESGGGLVQPKGSLKLSCAASGFTFNTYAMNWVRQAPGKGLEWVARIRSKSNNYATYYVDSVKDRFTISRDDSQSMLYLQINNLKTEDTAMYYCVRGRELGPYSAMDYWGQGTSVTVSS
VL: DIVMTQAAPSVPVTPGESVSISCRSSKSLLHSNGNTYLYWFLQRPGQSPQLLIYRMSNLASGVPDRFSGSGSGTAFTLRISRVEAEDVGLYYCMQHLEYPFTFGGGTKLEIK
notes: Hybridoma monoclonal; also called antibody 15; clone 15
B2 was tested, and the “% Blocking” value [25] was -45.6%, the MFI [25] was 994 and the “% hCCR8-Ba/F3 - THP-1 complexes” value [26] was 1.07%. For the same binder, the “% Blocking” value [27] was 19.4%, the MFI [27] was 639 and the “% Blocking” value [28] was -35.7%. The MFI [28] was 1060, the “% Blocking” value [29] was 1.55% and the MFI [29] was 992. The “% Blocking” value [30] was 20.9%, the MFI [30] was 713 and the “% Blocking” value [31] was -60.8%. The MFI [31] was 1080, the “% Blocking” value [32] was -29.4% and the MFI [32] was 970. For the same binder, the “% Blocking” value [33] was -51.8%, the MFI [33] was 995 and the “% Blocking” value [34] was 34.1%. The MFI [34] was 643, the “% Blocking” value [35] was 38.4% and the MFI [35] was 546. For the same binder, the “% Blocking” value [36] was -61.4%, the MFI [36] was 1120 and the “% Blocking” value [37] was -0.05%. For the same binder, the MFI [37] was 1110, the “% Blocking” value [38] was -3.67% and the MFI [38] was 971.
